# Assay results: patent publication US20190374506
# Target: Flag-PTEN
protein,measurement,value
Neural Precursor Cell Expressed Developmentally Down-Regulated Protein 4 polypeptide (NEDD4-1) (protein) MATCAVEVFGLLEDEENSRIVRVRVIAGIGLAKKDILGASDPYVRVTLYDPMNGVLTSVQTKTIKKSLNPKWNEEILFRVHPQQHRLLFEVFDENRLTRDDFLGQVDVPLYPLPTENPRLERPYTFKDFVLHPRSHKSRVKGYLRLKMTYLPKTSGSEDDNAEQAEELEPGWVVLDQPDAACHLQQQQEPSPLPPGWEERQDILGRTYYVNHESRRTQWKRPTPQDNLTDAENGNIQLQAQRAFTTRRQISEETESVDNRESSENWEIIREDEATMYSNQAFPSPPPSSNLDVPTHLAEELNARLTIFGNSAVSQPASSSNHSSRRGSLQAYTFEEQPTLPVLLPTSSGLPPGWEEKQDERGRSYYVDHNSRTTTWTKPTVQATVETSQLTSSQSSAGPQSQASTSDSGQQVTQPSEIEQGFLPKGWEVRHAPNGRPFFIDHNTKTTTWEDPRLKIPAHLRGKTSLDTSNDLGPLPPGWEERTHTDGRIFYINHNIKRTQWEDPRLENVAITGPAVPYSRDYKRKYEFFRRKLKKQNDIPNKFEMKLRRATVLEDSYRRIMGVKRADFLKARLWIEFDGEKGLDYGGVAREWFFLISKEMFNPYYGLFEYSATDNYTLQINPNSGLCNEDHLSYFKFIGRVAGMAVYHGKLLDGFFIRPFYKMMLHKPITLHDMESVDSEYYNSLRWILENDPTELDLRFIIDEELFGQTHQHELKNGGSEIVVTNKNKKEYIYLVIQWRFVNRIQKQMAAFKEGFFELIPQDLIKIFDENELELLMCGLGDVDVNDWREHTKYKNGYSANHQVIQWFWKAVLMMDSEKRIRLLQFVTGTSRVPMNGFAELYGSNGPQSFTVEQWGTPEKLPRAHTCFNRLDLPPYESFEELWDKLQMAIENTQGFDGVD,"in vitro ubiquitination of Flag-PTEN (E1, E2, ubiquitin; western blot with anti-PTEN antibody), NEDD4-1 alone",incubation of purified NEDD4-1 alone could not efficiently promote PTEN K27-linked poly-ubiquitination
same,"in vitro ubiquitination of Flag-PTEN, WWP1 and NEDD4-1 both present","in the presence of both WWP1 and NEDD4-1, PTEN was robustly K27-linked poly-ubiquitinated"
